Results on 35 variants are retold here after the Human Domainome abundance scans (Beltran et al. 2025).

Sequences and labels used below:
B1: Retinoic acid receptor beta, residues 85 to 161; numbered along this chain, P10826 (parent)
chain: YKPCFVCQDKSSGYHYGVSACEGCKGFFRRSIQKNMIYTCHRDKNCVINKVTRNRCQYCRLQKCFEVGMSKESVRND

± gives the uncertainty stated by the source.

Variants of B1 are the subject of the series. As to the kind of experiment: abundance fitness (aPCA) (normalised: wild type 0, dead -1); higher = more abundant; growth selection in yeast, the domain comes from the species named. As to conditions: Homo sapiens.
On to YKPCFVCQDKSSGYHYGVSACEGCKGFFRRSIQKNMIYTCHRDKNCVINKVTRNRCQYCRAQKCFEVGMSKESVRND [L61A], for which the abundance fitness was -0.591 ± 0.077.

YKPCFVCQDKSSGYHYGVSACEGCKGFFRRSIQKNMIYTCHRDKNCVINKVTRNRSQYCRLQKCFEVGMSKESVRND [C56S]: the abundance fitness is -0.749 ± 0.11.

As to YKPCFVCQDKSSGYHYGVSACEGCKGFFRRSIQKNMIYTCHRDKNCVINKVTRNRYQYCRLQKCFEVGMSKESVRND [C56Y], the abundance fitness is -0.567 ± 0.19.

As for YKPCFVCQDKSSGYHYGVSACEGCKGFFRRSIQKNMIYTCHRDKNCVINKVTRNRTQYCRLQKCFEVGMSKESVRND [C56T], the abundance fitness is -0.668 ± 0.18.

For the variant YKPCFVCQDKSSGYHYGVSACEGCKGFFRRSIQKNMIYTCHRDKNCVINKVTRNRWQYCRLQKCFEVGMSKESVRND [C56W], the abundance fitness was -0.893 ± 0.13.

With YKPCFVCQDKSSGYHYGVSACEGCKGFFRRSIQKNMIYTCHRDKNCVINKVTRNRRQYCRLQKCFEVGMSKESVRND [C56R], the abundance fitness is -0.928 ± 0.1.

With YKPCFVCQDKSSGYHYGVSACEGCKGFFRRSIQKNMIYTCHRDKNCVINKVTRNRCQYCTLQKCFEVGMSKESVRND [R60T], the abundance fitness is -0.001 ± 0.052.

With YKPCFVCQDKSSGYHYGVSACEGCKGFFRRSIQKNMIYTCHRDKNCVINKVTRNRCQYCMLQKCFEVGMSKESVRND [R60M], the abundance fitness is 0.199 ± 0.038.

For the variant YKPCFVCQDKSSGYHYGVSACEGCKGFFRRSIQKNMIYTCHRDKNCVINKVTRNRCQYCVLQKCFEVGMSKESVRND [R60V], the abundance fitness is -0.369 ± 0.052.

Turning to YKPCFVCQDKSSGYHYGVSACEGCKGFFRRSIQKNMIYTCHRDKNCVINKVTRNRCQYCQLQKCFEVGMSKESVRND [R60Q], the abundance fitness is -0.003 ± 0.052.

Consider YKPCFVCQDKSSGYHYGVSACEGCKGFFRRSIQKNMIYTCHRDKNCVINKVTRNRCQYCYLQKCFEVGMSKESVRND [R60Y], for which the abundance fitness is -0.002 ± 0.062.

Turning to YKPCFVCQDKSSGYHYGVSACEGCKGFFRRSIQKNMIYTCHRDKNCVINKVTRNRCQYCLLQKCFEVGMSKESVRND [R60L], the abundance fitness was 0.21 ± 0.035.

For YKPCFVCQDKSSGYHYGVSACEGCKGFFRRSIQKNMIYTCHRDKNCVINKVTRNRCQYCKLQKCFEVGMSKESVRND [R60K], the abundance fitness was -0.039 ± 0.052.

Regarding YKPCFVCQDKSSGYHYGVSACEGCKGFFRRSIQKNMIYTCHRDKNCVINKVTRNRCQYCDLQKCFEVGMSKESVRND [R60D], the abundance fitness is -0.901 ± 0.21.

As to YKPCFVCQDKSSGYHYGVSACEGCKGFFRRSIQKNMIYTCHRDKNCVINKVTRNRCQYCGLQKCFEVGMSKESVRND [R60G], the abundance fitness was -0.491 ± 0.069.

On to YKPCFVCQDKSSGYHYGVSACEGCKGFFRRSIQKNMIYTCHRDKNCVINKVTRNRCQYCPLQKCFEVGMSKESVRND [R60P], for which the abundance fitness was -0.722 ± 0.14.

As for YKPCFVCQDKSSGYHYGVSACEGCKGFFRRSIQKNMIYTCHRDKNCVINKVTRNRCQYCILQKCFEVGMSKESVRND [R60I], the abundance fitness is -0.653 ± 0.16.

Take YKPCFVCQDKSSGYHYGVSACEGCKGFFRRSIQKNMIYTCHRDKNCVINKVTRNRCQYCCLQKCFEVGMSKESVRND [R60C]: the abundance fitness was -0.155 ± 0.065.

Turning to YKPCFVCQDKSSGYHYGVSACEGCKGFFRRSIQKNMIYTCHRDKNCVINKVTRNRCQYCELQKCFEVGMSKESVRND [R60E], the abundance fitness was -0.598 ± 0.14.

YKPCFVCQDKSSGYHYGVSACEGCKGFFRRSIQKNMIYTCHRDKNCVINKVTRNRCQYCNLQKCFEVGMSKESVRND [R60N]: the abundance fitness was -0.845 ± 0.22.

Regarding YKPCFVCQDKSSGYHYGVSACEGCKGFFRRSIQKNMIYTCHRDKNCVINKVTRNRCQYCSLQKCFEVGMSKESVRND [R60S], the abundance fitness was -0.583 ± 0.08.

For the variant YKPCFVCQDKSSGYHYGVSACEGCKGFFRRSIQKNMIYTCHRDKNCVINKVTRNRCQYCWLQKCFEVGMSKESVRND [R60W], the abundance fitness turned out to be 0.114 ± 0.044.

As to YKPCFVCQDKSSGYHYGVSACEGCKGFFRRSIQKNMIYTCHRDKNCVINKVTRNRCQLCRLQKCFEVGMSKESVRND [Y58L], the abundance fitness was -0.545 ± 0.087.

As for YKPCFVCQDKSSGYHYGVSACEGCKGFFRRSIQKNMIYTCHRDKNCVINKVTRNRCQKCRLQKCFEVGMSKESVRND [Y58K], the abundance fitness is -0.147 ± 0.074.

With YKPCFVCQDKSSGYHYGVSACEGCKGFFRRSIQKNMIYTCHRDKNCVINKVTRNRCQICRLQKCFEVGMSKESVRND [Y58I], the abundance fitness is -0.898 ± 0.32.

For YKPCFVCQDKSSGYHYGVSACEGCKGFFRRSIQKNMIYTCHRDKNCVINKVTRNRCQECRLQKCFEVGMSKESVRND [Y58E], the abundance fitness was -0.214 ± 0.063.

Take YKPCFVCQDKSSGYHYGVSACEGCKGFFRRSIQKNMIYTCHRDKNCVINKVTRNRCQRCRLQKCFEVGMSKESVRND [Y58R]: the abundance fitness is -0.325 ± 0.057.

YKPCFVCQDKSSGYHYGVSACEGCKGFFRRSIQKNMIYTCHRDKNCVINKVTRNRCQPCRLQKCFEVGMSKESVRND [Y58P]: the abundance fitness is -1.13 ± 0.32.

YKPCFVCQDKSSGYHYGVSACEGCKGFFRRSIQKNMIYTCHRDKNCVINKVTRNRCQDCRLQKCFEVGMSKESVRND [Y58D]: the abundance fitness is -0.131 ± 0.077.

YKPCFVCQDKSSGYHYGVSACEGCKGFFRRSIQKNMIYTCHRDKNCVINKVTRNRCQGCRLQKCFEVGMSKESVRND [Y58G]: the abundance fitness was -0.134 ± 0.039.

As for YKPCFVCQDKSSGYHYGVSACEGCKGFFRRSIQKNMIYTCHRDKNCVINKVTRNRCQACRLQKCFEVGMSKESVRND [Y58A], the abundance fitness turned out to be 0.107 ± 0.046.

For YKPCFVCQDKSSGYHYGVSACEGCKGFFRRSIQKNMIYTCHRDKNCVINKVTRNRCQMCRLQKCFEVGMSKESVRND [Y58M], the abundance fitness was -0.237 ± 0.08.

In the case of YKPCFVCQDKSSGYHYGVSACEGCKGFFRRSIQKNMIYTCHRDKNCVINKVTRNRCQCCRLQKCFEVGMSKESVRND [Y58C], the abundance fitness is 0.046 ± 0.085.

Take YKPCFVCQDKSSGYHYGVSACEGCKGFFRRSIQKNMIYTCHRDKNCVINKVTRNRCQTCRLQKCFEVGMSKESVRND [Y58T]: the abundance fitness was -0.501 ± 0.16.

With YKPCFVCQDKSSGYHYGVSACEGCKGFFRRSIQKNMIYTCHRDKNCVINKVTRNRCQNCRLQKCFEVGMSKESVRND [Y58N], the abundance fitness is -0.634 ± 0.17.
